Test results from doi:10.1101/547208, “A single dose of antibody-1 drug conjugate cures a stage model of African trypanosomiasis” (bioRxiv, 2019).

Each binder was assayed against T1, Recombinant HpHbR N-terminal domain (Trypanosoma brucei brucei (strain not …, biotin (biotinylated form on streptavidin-coated plates; a non-biotinylated form was coated on Maxisorp plates)) (assay: ELISA; phage ELISA: 10 ug/ml HpHbR NTD coated on Nunc Maxisorp plates or 5 ug/mL biotinylated NTD on streptavidin-coated plates overnight at 4°C; blocked phage supernatants 1 hr at room temperature; bound phage detected with anti-M13 HRP antibody; BSA and streptavidin in parallel). Conditions: one partner purified.
T1 construct: also called HpHbR NTD; TbHpHbR NTD; source: recombinant, expressed as previously described (34)

Row | Binder | binding result
1 | Tb017 scFv (scFv, V domains shown, The name Tb017 is printed for the IgG1 and its conjugate; source: phage produced from E. coli, phage-containing supernatant) VH: QVQLVQSGAEVKKPGSSVKVSCKASGGTFSSYAISWVRQAPGQGLEWMGGIIPIFGTANYAQKFQGRVTITADESTSTAYMELSSLRSEDTAVYYCARGWWYDLVFDYWGQGTLVTVSS VL: not shown | binds
2 | Tb078 scFv (scFv, V domains shown, The name Tb078 is printed for the IgG1 and its conjugate; source: phage produced from E. coli, phage-containing supernatant) VH: QVQLVQSGAEVKKPGSSVKVSCKASGGTFSSYAISWVRQAPGQGLEWMGGIIPIFGTANYAQKFQGRVTITADESTSTAYMELSSLRSEDTAVYYCARGWIYEFIIDAWGQGTLVTVSS VL: not shown | binds
3 | Tb085 scFv (scFv, V domains shown, The name Tb085 is printed for the IgG1 and its conjugates; source: phage produced from E. coli, phage-containing supernatant) VH: QVQLVQSGAEVKKPGSSVKVSCKASGGTFSSYAISWVRQAPGQGLEWMGGIIPIFGTANYAQKFQGRVTITADESTSTAYMELSSLRSEDTAVYYCAREGWDYGWFDFWGQGTLVTVSS VL: not shown | binds
4 | Tb073 scFv (scFv, V domains shown, The name Tb073 is printed for the IgG1 and its conjugate; source: phage produced from E. coli, phage-containing supernatant) VH: QVQLVQSGAEVKKPGSSVKVSCKASGGTFSSYAISWVRQAPGQGLEWMGGIIPIFGTANYAQKFQGRVTITADESTSTAYMELSSLRSEDTAVYYCARGWYDMGDFDMWGQGTLVTVSS VL: QSVLTQPPSASGTPGQRVTISCSGSSSNIGSNTVNWYQQLPGTAPKLLIYSNNQRPSGVPDRFSGSKSGTSASLAISGLQSEDEADYYCAAWDWHHGHVVVFGGGTKLTVL | binds
5 | Tb086 scFv (scFv, V domains shown, The name Tb086 is printed for the IgG1; source: phage produced from E. coli, phage-containing supernatant) VH: QVQLVQSGAEVKKPGSSVKVSCKASGGTFSSYAISWVRQAPGQGLEWMGGIIPIFGTANYAQKFQGRVTITADESTSTAYMELSSLRSEDTAVYYCARGWYYHGGIDYWGQGTLVTVSS VL: not shown | binds
6 | Tb074 scFv (scFv, V domains shown, The name Tb074 is printed for the IgG1 and its conjugates; source: phage produced from E. coli, phage-containing supernatant) VH: QVQLVQSGAEVKKPGSSVKVSCKASGGTFSSYAISWVRQAPGQGLEWMGGIIPIFGTANYAQKFQGRVTITADESTSTAYMELSSLRSEDTAVYYCARGWWHEPGFDYWGQGTLVTVSS VL: not shown | binds
